B1: CCL13 (ligand)
chain: not shown
notes: recombinant human CCL13; source: bought: PeproTech
B2: CXCL9 (ligand)
chain: TPVVRKGRCSCISTNQGTIHLQSLKDLKQFAPSPSCEKIEIIATLKNGVQTCLNPDSADVKELIKKWEKQVSQKKKQKNGKKHQKKKVLKVRKSQRSRQKKTT
notes: recombinant human CXCL9; source: bought: PeproTech
B3: CXCL14 (ligand)
chain: SKCKCSRKGPKIRYSDVKKLEMKPKYPHCEEKMVIITTKSVSRYRGQEHCLHPKLQSTKRFIKWYNAWNEKRRVYEE
notes: recombinant human CXCL14; source: bought: PeproTech
B4: IL-27 (complex)
chain 1: FPRPPGRPQLSLQELRREFTVSLHLARKLLSEVRGQAHRFAESHLPGVNLYLLPLGEQLPDVSLTFQAWRRLSDPERLCFISTTLQPFHALLGGLGTQGRWTNMERMQLWAMRLDLRDLQRHLRFQVLAAGFNLPEEEEEEEEEEEEERKGLLPGALGSALQGPAQVSWPQLLSTYRLLHSLELVLSRAVRELLLLSKAGHSVWPLGFPTLSPQP
chain 2: RKGPPAALTLPRVQCRASRYPIAVDCSWTLPPAPNSTSPVSFIATYRLGMAARGHSWPCLQQTPTSTSCTITDVQLFSMAPYVLNVTAVHPWGSSSSFVPFITEHIIKPDPPEGVRLSPLAERQLQVQWEPPGSWPFPEIFSLKYWIRYKRQGAARFHRVGPIEATSFILRAVRPRARYYVQVAAQDLTDYGELSDWSLPATATMSLGK
notes: source: bought: PeproTech
B5: CXCL11 (ligand)
chain: FPMFKRGRCLCIGPGVKAVKVADIEKASIMYPSNNCDKIEVIITLKENKGQRCLNPKSKQARLIIKKVERKNF
notes: recombinant human CXCL11; source: bought: PeproTech
B6: CCL28 (ligand)
chain: SEAILPIASSCCTEVSHHISRRLLERVNMCRIQRADGDCDLAAVILHVKRRRICVSPHNHTVKQWMKVQAAKKNGKGNVCHRKKHHGKRNSNRAHQGKHETYGHKTPY
notes: recombinant human CCL28; source: bought: PeproTech
B7: CCL26 (ligand)
chain: TRGSDISKTCCFQYSHKPLPWTWVRSYEFTSNSCSQRAVIFTTKRGKKVCTHPRKKWVQKYISLLKTPKQL
notes: recombinant human CCL26; source: bought: PeproTech
B8: CCL25 (ligand)
chain: QGVFEDCCLAYHYPIGWAVLRRAWTYRIQEVSGSCNLPAAIFYLPKRHRKVCGNPKSREVQRAMKLLDARNKVFAKLHHNTQTFQAGPHAVKKLSSGNSKLSSSKFSNPISSSKRNVSLLISANSGL
notes: recombinant human CCL25; source: bought: PeproTech
B9: CCL21 (ligand)
chain: SDGGAQDCCLKYSQRKIPAKVVRSYRKQEPSLGCSIPAILFLPRKRSQAELCADPKELWVQQLMQHLDKTPSPQKPAQGCRKDRGASKTGKKGKGSKGCKRTERSQTPKGP
notes: recombinant human CCL21; source: bought: PeproTech
B10: CCL11 (ligand)
chain: not shown
notes: recombinant human CCL11; source: bought: PeproTech
B11: CXCL13 (ligand)
chain: VLEVYYTSLRCRCVQESSVFIPRRFIDRIQILPRGNGCPRKEIIVWKKNKSIVCVDPQAEWIQRMMEVLRKRSSSTLPVPVFKRKIP
notes: recombinant human CXCL13; source: bought: PeproTech
B12: CCL5 (ligand)
chain: SPYSSDTTPCCFAYIARPLPRAHIKEYFYTSGKCSNPAVVFVTRKNRQVCANPEKKWVREYINSLEMS
notes: recombinant human CCL5; source: bought: PeproTech
B13: HCoV-OC43 Nucleocapsid (N) protein (2X-StrepTag tagged) (natural protein)
chain: MSFTPGKQSSSRASSGNRSGNGILKWADQSDQVRNVQTRGRRAQPKQTATSQQPSGGNVVPYYSWFSGITQFQKGKEFEFVEGQGPPIAPGVPATEAKGYWYRHNRGSFKTADGNQRQLLPRWYFYYLGTGPHAKDQYGTDIDGVYWVASNQADVNTPADIVDRDPSSDEAIPTRFPPGTVLPQGYYIEGSGRSAPNSRSTSRTSSRASSAGSRSRANSGNRTPTSGVTPDMADQIASLVLAKLGKDATKPQQVTKHTAKEVRQKILNKPRQKRSPNKQCTVQQCFGKRGPNQNFGGGEMLKLGTSDPQFPILAELAPTAGAFFFGSRLELAKVQNLSGNPDEPQKDVYELRYNGAIRFDSTLSGFETIMKVLNENLNAYQQQDGMMNMSPKPQRQRGHKNGQGENDNISVAVPKSRVQQNKSRELTAEDISLLKKMDEPYTEDTSEI
notes: also called rN; HCoV-OC43 rN; source: HEK293-FT, transfected, in crude lysate; not shown: 2X-StrepTag, C-terminal, kept

What follows are binders tested against B13 (assay: BLI). Conditions: one partner purified.
In the case of B1, the Kd is reported as 1600 nM, the koff is reported as 0.025 s⁻¹ and the kon is reported as 19000 M⁻¹ s⁻¹.
For B2, the Kd was 29 nM, the koff was 0.0022 s⁻¹ and the kon was 82000 M⁻¹ s⁻¹.
With B3 the Kd was 580 nM, the koff was 0.0063 s⁻¹ and the kon was 12000 M⁻¹ s⁻¹.
Work on B4 yielded a Kd of 55 nM, a koff of 0.0024 s⁻¹ and a kon of 51000 M⁻¹ s⁻¹.
B5 was tested, and the Kd was 730 nM, the koff was 0.012 s⁻¹ and the kon was 18000 M⁻¹ s⁻¹.
For B6, the Kd was 27 nM, the koff was 0.0015 s⁻¹ and the kon was 60000 M⁻¹ s⁻¹.
In the case of B7, the Kd is reported as 620 nM, the koff is reported as 0.014 s⁻¹ and the kon is reported as 20000 M⁻¹ s⁻¹.
B8 was tested, and the Kd was 610 nM, the koff was 0.0048 s⁻¹ and the kon was 8300 M⁻¹ s⁻¹.
B9 showed a Kd of 290 nM, a koff of 0.012 s⁻¹ and a kon of 67000 M⁻¹ s⁻¹.
Work on B10 yielded a Kd of 1400 nM, a koff of 0.021 s⁻¹ and a kon of 17000 M⁻¹ s⁻¹.
In the case of B11, the Kd is reported as 140 nM, the koff is reported as 0.0046 s⁻¹ and the kon is reported as 44000 M⁻¹ s⁻¹.
B12 gave a Kd of 56000 nM, a koff of 0.015 s⁻¹ and a kon of 2100 M⁻¹ s⁻¹.

These binders were tested against T1, CXCL12α (human, UniProt P48061-2 22-89) (assay: BLI). Conditions: one partner purified.
T1 construct: source: bought: PeproTech
T1 sequence (P48061 22-89): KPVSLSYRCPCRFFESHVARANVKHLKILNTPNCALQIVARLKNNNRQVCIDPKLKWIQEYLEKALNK
Work on B13 yielded a Kd of 0.46 nM, a koff of 3.7e-05 s⁻¹ and a kon of 62000 M⁻¹ s⁻¹.
